# According to patent publication US20190389910A1 (ORUM THERAPEUTICS, published 2019):
# Biological target: heparan sulfate proteoglycan (HSPG) expressed on HeLa cells
# Assay: cell-based or functional assay
row,Binder,"fluorescence intensity of antibody located in the cytoplasm (confocal microscopy, HeLa cells, 1 µM, 6 h) [%]"
1,"TMab4-WYW (antibody, human IgG1, V domains shown) VH: EVQLVESGGGLVQPGGSLRLSCAASGYTFTSYVMHWVRQAPGKGLEWVSAINPYNDGNYYADSVKGRFTISRDNSRKTLYLQMNSLRAEDTAVYYCARGAYKRGYAMDYWGQGTTVTVSS VL: DLVMTQSPSSLSASVGDRVTITCKSSQSLFNSRTRKNYLAWYQQKPGKAPKLLIYWASTRESGVPSRFSGSGSGTDFTLTISSLQPEDFATYYCQQYWYWMYTFGQGTKVEIKR",100
2,"CT03a (antibody, V domains shown) VH: EVQLVESGGGLVQPGGSLRLSCAASGYTFTSYVMHWVRQAPGKGLEWVSAINPYNDGNYYADSVKGRFTISRDNSRKTLYLQMNSLRAEDTAVYYCARGAYKRGYAMDYWGQGTTVTVSS VL: DLVMTQSPSSLSASVGDRVTITCKSSQSLLNSRTRKNYLAWYQQKPGKAPKLLIYWASTRESGVPSRFSGSGSGTDFTLTISSLQPEDFATYFCQQYWYWMYTFGQGTKVEIKR",40.1
3,"CT03c (antibody, V domains shown) VH: EVQLVESGGGLVQPGGSLRLSCAASGYTFTSYVMHWVRQAPGKGLEWVSAINPYNDGNYYADSVKGRFTISRDNSRKTLYLQMNSLRAEDTAVYYCARGAYKRGYAMDYWGQGTTVTVSS VL: DLVMTQSPSSLSASVGDRVTITCKSSQSLLNSDDRNTYLAWYQQKPGKAPKLLIYWLSYRASGVPSRFSGSGSGTDFTLTISSLQPEDFATYFCQQYWYWMYTFGQGTKVEIKR",31.8
4,"CT03d (antibody, V domains shown) VH: EVQLVESGGGLVQPGGSLRLSCAASGYTFTSYVMHWVRQAPGKGLEWVSAINPYNDGNYYADSVKGRFTISRDNSRKTLYLQMNSLRAEDTAVYYCARGAYKRGYAMDYWGQGTTVTVSS VL: DLVMTQSPSSLSASVGDRVTITCKSSQSLLNSRTGKTYLAWYQQKPGKAPKLLIYWASTRESGVPSRFSGSGSGTDFTLTISSLQPEDFATYFCQQYWYWMYTFGQGTKVEIKR",26.3
5,"CT03e (antibody, V domains shown) VH: EVQLVESGGGLVQPGGSLRLSCAASGYTFTSYVMHWVRQAPGKGLEWVSAINPYNDGNYYADSVKGRFTISRDNSRKTLYLQMNSLRAEDTAVYYCARGAYKRGYAMDYWGQGTTVTVSS VL: DLVMTQSPSSLSASVGDRVTITCKSSQSLLNSRDGKNYLAWYQQKPGKAPKLLIYWASTRESGVPSRFSGSGSGTDFTLTISSLQPEDFATYFCQQYWYWMYTFGQGTKVEIKR",19.6

# Biological target: human recombinant EpCAM antigen (extracellular domain, residues 1 to 265, fused with 6×His tag and Avi-tag) (human) (UniProt P16422)
# Sequence (P16422 24-265 limits assumed, form in doubt): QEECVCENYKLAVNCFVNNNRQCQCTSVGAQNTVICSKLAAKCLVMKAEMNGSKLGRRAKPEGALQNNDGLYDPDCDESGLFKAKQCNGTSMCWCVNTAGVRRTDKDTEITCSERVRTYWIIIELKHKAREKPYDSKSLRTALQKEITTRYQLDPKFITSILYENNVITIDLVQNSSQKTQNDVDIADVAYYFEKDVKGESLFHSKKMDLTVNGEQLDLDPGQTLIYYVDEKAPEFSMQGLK
# Assay: SPR (Biacore 2000), EpCAM on CM5 chip (about 211 RU), antibody 6.25-100 nM as analyte
Binder,Kd [nM],koff [s⁻¹],kon [M⁻¹ s⁻¹]
"epRas03 (4-8) (antibody, part only; not given: RT22 heavy chain, light constant, V domains shown, not shown: another chain or arm of the molecule; a dimerising Fc or GST, chain 1: disulfide bond Cys5-Cys10 closes the cyclic peptide) VL: RNLLCIGNLCWPMGSSSNDIQMTQSPSSLSASVGDRVTITCKSSQSLLNSRDGKNYLAWYQQKPGKAPKLLIYWASTRESGVPSRFSGSGSGTDFTLTISSLQPEDFATYFCQQYWYWMYTFGQGTKVEIK",3.04,0.00224,737000
"epRas03 (4-12) (antibody, part only; not given: RT22 heavy chain, light constant, V domains shown, not shown: another chain or arm of the molecule; a dimerising Fc or GST, chain 1: disulfide bond Cys5-Cys10 closes the cyclic peptide) VL: RNLLCLRRICWPMGSSSNDIQMTQSPSSLSASVGDRVTITCKSSQSLLNSRDGKNYLAWYQQKPGKAPKLLIYWASTRESGVPSRFSGSGSGTDFTLTISSLQPEDFATYFCQQYWYWMYTFGQGTKVEIK",17.7,0.00117,66400
"epRas03 (4-13) (antibody, part only; not given: RT22 heavy chain, light constant, V domains shown, not shown: another chain or arm of the molecule; a dimerising Fc or GST, chain 1: disulfide bond Cys5-Cys10 closes the cyclic peptide) VL: RNLQCIRNICWSMGSSSNDIQMTQSPSSLSASVGDRVTITCKSSQSLLNSRDGKNYLAWYQQKPGKAPKLLIYWASTRESGVPSRFSGSGSGTDFTLTISSLQPEDFATYFCQQYWYWMYTFGQGTKVEIK",0.185,0.00105,5.69e+06
"epRas03 (4-14) (antibody, part only; not given: RT22 heavy chain, light constant, V domains shown, not shown: another chain or arm of the molecule; a dimerising Fc or GST, chain 1: disulfide bond Cys5-Cys10 closes the cyclic peptide) VL: RNLHCIGNLCWPMGSSSNDIQMTQSPSSLSASVGDRVTITCKSSQSLLNSRDGKNYLAWYQQKPGKAPKLLIYWASTRESGVPSRFSGSGSGTDFTLTISSLQPEDFATYFCQQYWYWMYTFGQGTKVEIK",183,0.00205,11200
"epRas03 (4-19) (antibody, part only; not given: RT22 heavy chain, light constant, V domains shown, not shown: another chain or arm of the molecule; a dimerising Fc or GST, chain 1: disulfide bond Cys5-Cys10 closes the cyclic peptide) VL: RNLRCIGNICWSMGSSSNDIQMTQSPSSLSASVGDRVTITCKSSQSLLNSRDGKNYLAWYQQKPGKAPKLLIYWASTRESGVPSRFSGSGSGTDFTLTISSLQPEDFATYFCQQYWYWMYTFGQGTKVEIK",0.313,0.00168,5.38e+06
"epRas03 (4-27) (antibody, part only; not given: RT22 heavy chain, light constant, V domains shown, not shown: another chain or arm of the molecule; a dimerising Fc or GST, chain 1: disulfide bond Cys5-Cys10 closes the cyclic peptide) VL: RHLWCLGRLCWPMGSSSNDIQMTQSPSSLSASVGDRVTITCKSSQSLLNSRDGKNYLAWYQQKPGKAPKLLIYWASTRESGVPSRFSGSGSGTDFTLTISSLQPEDFATYFCQQYWYWMYTFGQGTKVEIK",9.94,0.00421,424000

# Biological target: human recombinant EpCAM antigen (extracellular domain, residues 1 to 265, fused with 6×His tag and Avi-tag) (human) (UniProt P16422)
# Assay: SPR (Biacore 2000), EpCAM on CM5 chip (about 367 RU), antibody 6.25-100 nM as analyte
Binder,Kd [nM],koff [s⁻¹],kon [M⁻¹ s⁻¹]
"ep3-Ras03 (antibody, part only; not given: RT22 heavy chain, light constant, V domains shown, not shown: another chain or arm of the molecule; a dimerising Fc or GST, chain 1: disulfide bond Cys5-Cys10 closes the cyclic peptide) VL: ENLQCIGNLCWSMGSSSNDIQMTQSPSSLSASVGDRVTITCKSSQSLLNSRDGKNYLAWYQQKPGKAPKLLIYWASTRESGVPSRFSGSGSGTDFTLTISSLQPEDFATYFCQQYWYWMYTFGQGTKVEIK",2.11,0.0036,1.7e+06
"ep4-Ras03 (antibody, part only; not given: RT22 heavy chain, light constant, V domains shown, not shown: another chain or arm of the molecule; a dimerising Fc or GST, chain 1: disulfide bond Cys5-Cys10 closes the cyclic peptide) VL: EHLHCLGSLCWSMGSSSNDIQMTQSPSSLSASVGDRVTITCKSSQSLLNSRDGKNYLAWYQQKPGKAPKLLIYWASTRESGVPSRFSGSGSGTDFTLTISSLQPEDFATYFCQQYWYWMYTFGQGTKVEIK",12.4,0.00905,728000
"ep6-Ras03 (antibody, part only; not given: RT22 heavy chain, light constant, V domains shown, not shown: another chain or arm of the molecule; a dimerising Fc or GST, chain 1: disulfide bond Cys5-Cys10 closes the Ep6 cyclic peptide) VL: NNLRCIGNICWSMGSSSNDIQMTQSPSSLSASVGDRVTITCKSSQSLLNSRDGKNYLAWYQQKPGKAPKLLIYWASTRESGVPSRFSGSGSGTDFTLTISSLQPEDFATYFCQQYWYWMYTFGQGTKVEIK",1.86,,3.02e+06
"ep7-Ras03 (antibody, part only; not given: RT22 heavy chain, light constant, V domains shown, not shown: another chain or arm of the molecule; a dimerising Fc or GST, chain 1: disulfide bond Cys5-Cys10 closes the Ep7 cyclic peptide) VL: DNLRCIGNICWSMGSSSNDIQMTQSPSSLSASVGDRVTITCKSSQSLLNSRDGKNYLAWYQQKPGKAPKLLIYWASTRESGVPSRFSGSGSGTDFTLTISSLQPEDFATYFCQQYWYWMYTFGQGTKVEIK",4.35,,1.36e+06

# Biological target: human recombinant integrin αvβ5 (αv extracellular domain-acidic leucine zipper-His×6 with β5 extracellular domain-basic leucine zipper) (human) (UniProt P06756)
# Sequence (P06756 other isoform, or with tags, fused parts or gaps, chain 1 of 2): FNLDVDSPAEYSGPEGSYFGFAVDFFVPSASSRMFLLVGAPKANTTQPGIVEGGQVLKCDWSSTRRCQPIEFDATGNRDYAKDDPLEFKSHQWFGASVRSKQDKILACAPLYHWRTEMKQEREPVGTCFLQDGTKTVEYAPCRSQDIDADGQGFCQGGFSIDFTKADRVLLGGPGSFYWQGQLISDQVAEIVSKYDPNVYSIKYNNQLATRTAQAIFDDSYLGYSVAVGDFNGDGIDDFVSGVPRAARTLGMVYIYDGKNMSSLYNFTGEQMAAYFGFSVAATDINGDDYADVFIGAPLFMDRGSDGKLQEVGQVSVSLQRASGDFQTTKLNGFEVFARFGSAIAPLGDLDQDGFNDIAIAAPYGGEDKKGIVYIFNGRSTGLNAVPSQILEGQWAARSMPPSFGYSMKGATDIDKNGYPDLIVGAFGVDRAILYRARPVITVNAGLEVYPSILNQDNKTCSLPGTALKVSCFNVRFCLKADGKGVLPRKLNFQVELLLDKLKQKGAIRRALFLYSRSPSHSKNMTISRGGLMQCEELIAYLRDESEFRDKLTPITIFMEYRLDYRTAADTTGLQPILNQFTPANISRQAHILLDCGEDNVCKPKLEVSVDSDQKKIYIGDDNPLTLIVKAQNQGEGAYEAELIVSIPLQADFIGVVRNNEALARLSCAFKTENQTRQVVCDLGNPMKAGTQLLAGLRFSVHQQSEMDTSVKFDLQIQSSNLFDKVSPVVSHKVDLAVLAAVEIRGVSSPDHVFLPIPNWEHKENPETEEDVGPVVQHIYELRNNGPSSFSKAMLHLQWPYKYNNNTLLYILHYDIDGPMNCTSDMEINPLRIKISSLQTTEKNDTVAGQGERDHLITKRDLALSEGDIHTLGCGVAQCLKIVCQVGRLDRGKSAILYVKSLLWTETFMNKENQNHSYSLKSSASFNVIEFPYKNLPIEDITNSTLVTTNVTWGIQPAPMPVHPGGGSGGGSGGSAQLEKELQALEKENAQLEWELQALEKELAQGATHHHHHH
# Sequence (chain, as listed by the source, chain 2 of 2): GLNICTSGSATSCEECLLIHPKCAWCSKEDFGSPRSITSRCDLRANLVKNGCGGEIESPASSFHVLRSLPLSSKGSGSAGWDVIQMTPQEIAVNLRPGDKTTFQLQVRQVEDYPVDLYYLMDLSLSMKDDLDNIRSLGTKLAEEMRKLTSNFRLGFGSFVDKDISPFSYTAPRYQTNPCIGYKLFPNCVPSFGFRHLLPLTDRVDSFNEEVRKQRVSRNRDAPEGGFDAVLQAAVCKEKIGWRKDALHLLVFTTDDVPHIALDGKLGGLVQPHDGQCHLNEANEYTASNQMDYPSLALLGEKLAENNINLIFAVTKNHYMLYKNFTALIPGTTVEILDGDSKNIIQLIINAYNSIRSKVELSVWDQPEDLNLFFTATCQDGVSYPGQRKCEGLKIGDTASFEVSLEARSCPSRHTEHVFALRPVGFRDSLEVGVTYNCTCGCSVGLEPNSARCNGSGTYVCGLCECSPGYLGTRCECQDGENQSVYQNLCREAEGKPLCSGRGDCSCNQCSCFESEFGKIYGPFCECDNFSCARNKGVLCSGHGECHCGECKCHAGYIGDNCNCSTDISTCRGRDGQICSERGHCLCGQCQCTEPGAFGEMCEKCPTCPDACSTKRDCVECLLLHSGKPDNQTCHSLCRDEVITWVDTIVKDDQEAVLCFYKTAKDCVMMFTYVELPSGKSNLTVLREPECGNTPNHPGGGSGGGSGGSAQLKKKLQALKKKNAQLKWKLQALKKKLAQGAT
# Assay: BLI (Octet), antibody captured on anti-human IgG Fc (AHC) biosensor, integrin αvβ5 3.1-100 nM as analyte, divalent cations
Binder,Kd [nM],koff [s⁻¹],kon [M⁻¹ s⁻¹]
"in4-Ras03 (antibody, part only; not given: RT22 heavy chain, light constant, V domains shown, not shown: another chain or arm of the molecule; a dimerising Fc or GST, chain 1: disulfide bond Cys6-Cys10 closes the in4 cyclic peptide) VL: DGVRQCRGDCFDGPLMGSSSNDIQMTQSPSSLSASVGDRVTITCKSSQSLLNSRDGKNYLAWYQQKPGKAPKLLIYWASTRESGVPSRFSGSGSGTDFTLTISSLQPEDFATYFCQQYWYWMYTFGQGTKVEIK",2.06,0.000166,80600
"5#2-Ras03 (antibody, part only; not given: RT22 heavy chain, constant regions, V domains shown, not shown: another chain or arm of the molecule; a dimerising Fc or GST; large carriers; small tags and cut ends, chain 1: disulfide bond Cys6-Cys14 closes the 5#2 cyclic peptide) VL: ASYNDCQSRGDTFCVADMGSSSNDIQMTQSPSSLSASVGDRVTITCKSSQSLLNSRDGKNYLAWYQQKPGKAPKLLIYWASTRESGVPSRFSGSGSGTDFTLTISSLQPEDFATYFCQQYWYWMYTFGQGTKVEIK",2.63,0.00012,45500
"5#3-Ras03 (antibody, part only; not given: RT22 heavy chain, constant regions, V domains shown, not shown: another chain or arm of the molecule; a dimerising Fc or GST; large carriers; small tags and cut ends, chain 1: disulfide bond Cys6-Cys16 closes the 5#3 cyclic peptide) VL: SRDETCTPRGDTFAICMGSSSNDIQMTQSPSSLSASVGDRVTITCKSSQSLLNSRDGKNYLAWYQQKPGKAPKLLIYWASTRESGVPSRFSGSGSGTDFTLTISSLQPEDFATYFCQQYWYWMYTFGQGTKVEIK",4.88,0.000163,33300
"5#4-Ras03 (antibody, part only; not given: RT22 heavy chain, constant regions, V domains shown, not shown: another chain or arm of the molecule; a dimerising Fc or GST; large carriers; small tags and cut ends, chain 1: disulfide bond Cys6-Cys17 closes the 5#4 cyclic peptide) VL: EHATNCTTRGDTFVVLCGLGMGSSSNDIQMTQSPSSLSASVGDRVTITCKSSQSLLNSRDGKNYLAWYQQKPGKAPKLLIYWASTRESGVPSRFSGSGSGTDFTLTISSLQPEDFATYFCQQYWYWMYTFGQGTKVEIK",7.01,0.000158,22500

# Biological target: human recombinant integrin αvβ6 (αv extracellular domain-acidic leucine zipper-His×6 with β6 extracellular domain-basic leucine zipper) (human) (UniProt P06756)
# Sequence (P06756 other isoform, or with tags, fused parts or gaps, chain 1 of 2): as the sequence (P06756 other isoform, or with tags, fused parts or gaps, chain 1 of 2) above
# Sequence (chain, as listed by the source, chain 2 of 2): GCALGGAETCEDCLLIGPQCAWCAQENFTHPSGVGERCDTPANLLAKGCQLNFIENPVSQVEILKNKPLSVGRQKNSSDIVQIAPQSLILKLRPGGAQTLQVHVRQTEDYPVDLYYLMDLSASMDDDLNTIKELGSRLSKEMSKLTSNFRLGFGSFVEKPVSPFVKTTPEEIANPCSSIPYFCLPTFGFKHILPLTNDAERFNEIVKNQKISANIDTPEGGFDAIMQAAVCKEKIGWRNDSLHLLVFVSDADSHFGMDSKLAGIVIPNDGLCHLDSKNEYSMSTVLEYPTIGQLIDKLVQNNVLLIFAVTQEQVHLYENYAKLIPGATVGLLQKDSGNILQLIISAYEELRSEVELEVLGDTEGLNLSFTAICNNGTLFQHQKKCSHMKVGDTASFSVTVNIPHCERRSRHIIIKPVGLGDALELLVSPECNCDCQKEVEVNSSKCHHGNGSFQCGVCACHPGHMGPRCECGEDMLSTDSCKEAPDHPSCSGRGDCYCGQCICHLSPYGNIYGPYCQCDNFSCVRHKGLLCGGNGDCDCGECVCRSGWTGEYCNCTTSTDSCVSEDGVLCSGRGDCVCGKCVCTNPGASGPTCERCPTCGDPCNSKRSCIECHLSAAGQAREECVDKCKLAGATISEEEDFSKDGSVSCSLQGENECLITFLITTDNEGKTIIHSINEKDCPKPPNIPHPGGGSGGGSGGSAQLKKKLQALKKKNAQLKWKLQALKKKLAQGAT
# Assay: BLI (Octet), antibody captured on anti-human IgG Fc (AHC) biosensor, integrin αvβ6 3.1-100 nM as analyte, divalent cations
Binder,Kd [nM],koff [s⁻¹],kon [M⁻¹ s⁻¹]
"in4-Ras03 (antibody, part only; not given: RT22 heavy chain, light constant, V domains shown, not shown: another chain or arm of the molecule; a dimerising Fc or GST, chain 1: disulfide bond Cys6-Cys10 closes the in4 cyclic peptide) VL: DGVRQCRGDCFDGPLMGSSSNDIQMTQSPSSLSASVGDRVTITCKSSQSLLNSRDGKNYLAWYQQKPGKAPKLLIYWASTRESGVPSRFSGSGSGTDFTLTISSLQPEDFATYFCQQYWYWMYTFGQGTKVEIK",12.1,0.00703,583000
"6#2-Ras03 (antibody, part only; not given: RT22 heavy chain, constant regions, V domains shown, not shown: another chain or arm of the molecule; a dimerising Fc or GST; large carriers; small tags and cut ends, chain 1: disulfide bond Cys6-Cys16 closes the 6#2 cyclic peptide) VL: HVEFPCTRRGDLFVLCEGSMGSSSNDIQMTQSPSSLSASVGDRVTITCKSSQSLLNSRDGKNYLAWYQQKPGKAPKLLIYWASTRESGVPSRFSGSGSGTDFTLTISSLQPEDFATYFCQQYWYWMYTFGQGTKVEIK",0.722,0.000153,212000
"6#4-Ras03 (antibody, part only; not given: RT22 heavy chain, light constant, V domains shown, not shown: another chain or arm of the molecule; a dimerising Fc or GST, chain 1: disulfide bond Cys6-Cys16 closes the cyclic peptide) VL: ESFRPCQYRGDLFVLCFPSDMGSSSNDIQMTQSPSSLSASVGDRVTITCKSSQSLLNSRDGKNYLAWYQQKPGKAPKLLIYWASTRESGVPSRFSGSGSGTDFTLTISSLQPEDFATYFCQQYWYWMYTFGQGTKVEIK",1.52,0.000265,175000
"6#8-Ras03 (antibody, part only; not given: RT22 heavy chain, light constant, V domains shown, not shown: another chain or arm of the molecule; a dimerising Fc or GST, chain 1: disulfide bond Cys6-Cys16 closes the cyclic peptide) VL: FPNNQCQHRGDLFALCADMGSSSNDIQMTQSPSSLSASVGDRVTITCKSSQSLLNSRDGKNYLAWYQQKPGKAPKLLIYWASTRESGVPSRFSGSGSGTDFTLTISSLQPEDFATYFCQQYWYWMYTFGQGTKVEIK",0.952,0.000175,184000
"SFITGv6-Ras03 (antibody, part only; not given: RT22 heavy chain, constant regions, V domains shown, not shown: another chain or arm of the molecule; a dimerising Fc or GST; large carriers; small tags and cut ends, chain 1: disulfide bond Cys3-Cys13 closes the SFITGv6 cyclic peptide) VL: GRCTFRGDLMQLCYPDMGSSSNDIQMTQSPSSLSASVGDRVTITCKSSQSLLNSRDGKNYLAWYQQKPGKAPKLLIYWASTRESGVPSRFSGSGSGTDFTLTISSLQPEDFATYFCQQYWYWMYTFGQGTKVEIK",0.457,0.000128,279000
